The supplement of paper PMC10065799, “High-throughput profiling of sequence recognition by tyrosine kinases and SH2 domains using bacterial peptide display” (eLife, 2023)

Target: MERTK (UniProt Q12866)
Experiment: phosphorylation enrichment, bacterial display (enrichment ratio); higher = better substrate or ligand; peptides without Tyr show the background
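Further: 11-residue human phosphosite peptides and single-mutation variants displayed on the E. coli surface, counted by deep sequencing, each peptide's frequency after selection divided by its frequency in the unselected input library; frequency after pTyr selection over input frequency; kinase dosed for 20-30% of maximal phosphorylation in three min.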

MERTK, sequence (Q12866 whole entry, looked up): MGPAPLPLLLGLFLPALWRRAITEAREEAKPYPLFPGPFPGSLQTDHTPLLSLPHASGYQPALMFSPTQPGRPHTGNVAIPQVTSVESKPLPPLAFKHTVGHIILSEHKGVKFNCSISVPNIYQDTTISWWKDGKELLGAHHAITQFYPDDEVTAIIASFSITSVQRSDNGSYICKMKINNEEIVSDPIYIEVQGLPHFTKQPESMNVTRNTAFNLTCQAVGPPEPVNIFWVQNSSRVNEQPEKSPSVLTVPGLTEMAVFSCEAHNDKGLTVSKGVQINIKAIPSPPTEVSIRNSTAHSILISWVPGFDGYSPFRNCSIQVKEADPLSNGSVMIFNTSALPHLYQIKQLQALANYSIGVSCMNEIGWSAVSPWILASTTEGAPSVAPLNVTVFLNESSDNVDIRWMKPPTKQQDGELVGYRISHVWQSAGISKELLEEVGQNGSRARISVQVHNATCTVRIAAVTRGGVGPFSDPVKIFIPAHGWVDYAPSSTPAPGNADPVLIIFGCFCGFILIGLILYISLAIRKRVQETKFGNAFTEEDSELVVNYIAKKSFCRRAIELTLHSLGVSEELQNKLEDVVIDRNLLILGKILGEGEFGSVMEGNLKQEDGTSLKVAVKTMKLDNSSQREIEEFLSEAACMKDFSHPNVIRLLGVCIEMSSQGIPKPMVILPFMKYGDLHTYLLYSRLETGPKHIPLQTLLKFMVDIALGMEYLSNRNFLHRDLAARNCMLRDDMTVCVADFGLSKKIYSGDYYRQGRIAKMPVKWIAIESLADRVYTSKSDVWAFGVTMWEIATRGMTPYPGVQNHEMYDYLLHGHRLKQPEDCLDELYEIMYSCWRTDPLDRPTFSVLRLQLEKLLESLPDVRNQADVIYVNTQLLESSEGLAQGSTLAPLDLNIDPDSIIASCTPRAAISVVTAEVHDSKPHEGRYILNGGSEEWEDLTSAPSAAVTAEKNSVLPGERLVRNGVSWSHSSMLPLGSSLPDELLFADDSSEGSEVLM

Row | Sequence | phosphorylation enrichment
1 | KIKGWYEKCEP [KRT26_Y119] | 0.446
2 | HHTDECEFDEL [TGM1_Y134_Y134C_YF] | 0.471
3 | TGVWDYIHVVD [GALE_Y241_R239W] | 0.433
4 | EDDPEYMRLRN [ADD2_Y31] | 0.414
5 | GLRQGYFVEAQ [APCS_Y142] | 0.36
6 | EFFDGYWGFSV [ITGA2B_Y265_YF] | 1.14
7 | RMSSSYPTGLA [ADM_Y52] | 0.433
8 | ISIFHYAKGQP [MPZ_Y82] | 0.379
9 | DHPSEYAARQL [ANXA13_Y90_R86H] | 0.453
10 | FSTDFYRVGGH [NTRK2_Y707_YF] | 0.429
11 | ILTYKYLQIPM [KIT_Y547_K550I] | 0.406
12 | REIHDYIKHLG [UNC13C_Y308_D304E] | 0.723
13 | NYYDLYGGEKF [PTPN11_Y66_D61N] | 7.49
14 | ISDNACQFMLT [MYH7_Y162_Y162C_YF] | 0.448
15 | RDHYGYRQSVT [CD55_Y245] | 0.774
16 | EVESPYEVRDF [GIGYF2_Y1168_H1171R_YF] | 0.809
17 | MPQNEYIELHR [NSA2_Y6] | 0.338

Row | Sequence | phosphorylation enrichment
18 | LFMGDYVGRGF [PPP2CA_Y86_D88G_YF] | 0.456
19 | ADLLVYIKALN [HPRT1_Y81_D80V] | 0.349
20 | RNFDTYTAGLS [RHBDD1_Y264_YF] | 0.452
21 | CTTIHFNYMCN [TP53_Y234_Y234F] | 0.397
22 | NVVVPYEPPEV [TP53_Y220_S215N] | 0.493
23 | LDPIQYSKHPP [SQSTM1_Y433_T430P] | 0.384
24 | SGTFQYIIAKF [FOXL2_Y83_I80T_YF] | 0.393
25 | FTGDIYSNSNL [LZTR1_Y141_YF] | 1.1
26 | GHNDVYISEHV [GRIN2A_Y1423] | 0.332
27 | RCNHPYLINGA [CHD7_Y1256_C1251R] | 0.429
28 | KFLENYLNCLL [PLD2_Y169_R172C_YF] | 0.461
29 | ISITPYPAILH [IFT80_Y588] | 0.36
30 | DLLMQYPKAQG [FAM83C_Y600] | 0.356
31 | ARGTRYRFVSQ [UCN3_Y95_YF] | 0.48
32 | EFGFRYELVQY [UGGT2_Y1289_Y1285F] | 0.338
33 | DLGIQYKALKP [CTNNA1_Y177] | 0.453

Target: EPHB2 (UniProt P29323)
Experiment: as above

EPHB2, sequence (P29323 whole entry, looked up): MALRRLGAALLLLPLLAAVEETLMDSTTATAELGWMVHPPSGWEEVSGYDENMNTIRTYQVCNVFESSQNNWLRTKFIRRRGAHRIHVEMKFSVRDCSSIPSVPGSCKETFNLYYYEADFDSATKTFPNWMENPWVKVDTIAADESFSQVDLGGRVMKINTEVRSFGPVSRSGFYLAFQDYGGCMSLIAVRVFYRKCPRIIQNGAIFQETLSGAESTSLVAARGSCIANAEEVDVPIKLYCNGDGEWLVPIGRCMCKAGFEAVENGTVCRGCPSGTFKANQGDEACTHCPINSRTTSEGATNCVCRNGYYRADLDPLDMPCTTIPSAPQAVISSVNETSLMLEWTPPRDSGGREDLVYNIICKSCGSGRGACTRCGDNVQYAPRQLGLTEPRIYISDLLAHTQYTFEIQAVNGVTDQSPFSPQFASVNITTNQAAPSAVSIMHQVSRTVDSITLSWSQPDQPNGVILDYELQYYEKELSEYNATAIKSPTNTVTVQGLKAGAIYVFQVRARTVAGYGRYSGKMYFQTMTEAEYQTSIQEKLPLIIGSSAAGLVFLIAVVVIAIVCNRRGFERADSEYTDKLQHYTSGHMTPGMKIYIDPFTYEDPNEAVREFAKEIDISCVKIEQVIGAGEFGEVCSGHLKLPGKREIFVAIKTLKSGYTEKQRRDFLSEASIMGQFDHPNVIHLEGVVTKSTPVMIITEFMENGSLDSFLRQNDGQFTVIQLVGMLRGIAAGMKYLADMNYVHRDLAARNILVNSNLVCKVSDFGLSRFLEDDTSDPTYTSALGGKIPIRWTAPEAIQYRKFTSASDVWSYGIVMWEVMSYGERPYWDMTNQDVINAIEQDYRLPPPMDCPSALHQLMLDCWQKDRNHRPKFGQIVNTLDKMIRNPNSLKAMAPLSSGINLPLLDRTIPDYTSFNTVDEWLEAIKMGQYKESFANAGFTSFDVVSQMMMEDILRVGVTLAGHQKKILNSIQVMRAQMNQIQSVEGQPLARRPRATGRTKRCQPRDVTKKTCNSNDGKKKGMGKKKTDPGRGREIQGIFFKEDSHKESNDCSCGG

Row | Sequence | phosphorylation enrichment
34 | KIKGWYEKCEP [KRT26_Y119] | 0.573
35 | HHTDECEFDEL [TGM1_Y134_Y134C_YF] | 0.426
36 | TGVWDYIHVVD [GALE_Y241_R239W] | 0.588
37 | EDDPEYMRLRN [ADD2_Y31] | 0.594
38 | GLRQGYFVEAQ [APCS_Y142] | 0.505
39 | EFFDGYWGFSV [ITGA2B_Y265_YF] | 0.58
40 | RMSSSYPTGLA [ADM_Y52] | 0.447
41 | ISIFHYAKGQP [MPZ_Y82] | 0.481
42 | DHPSEYAARQL [ANXA13_Y90_R86H] | 0.494
43 | FSTDFYRVGGH [NTRK2_Y707_YF] | 0.405
44 | ILTYKYLQIPM [KIT_Y547_K550I] | 0.631
45 | REIHDYIKHLG [UNC13C_Y308_D304E] | 0.663
46 | NYYDLYGGEKF [PTPN11_Y66_D61N] | 12.1
47 | ISDNACQFMLT [MYH7_Y162_Y162C_YF] | 0.615
48 | RDHYGYRQSVT [CD55_Y245] | 0.472
49 | EVESPYEVRDF [GIGYF2_Y1168_H1171R_YF] | 0.951
50 | MPQNEYIELHR [NSA2_Y6] | 0.673

Row | Sequence | phosphorylation enrichment
51 | LFMGDYVGRGF [PPP2CA_Y86_D88G_YF] | 1.48
52 | ADLLVYIKALN [HPRT1_Y81_D80V] | 0.628
53 | RNFDTYTAGLS [RHBDD1_Y264_YF] | 3.55
54 | CTTIHFNYMCN [TP53_Y234_Y234F] | 0.501
55 | NVVVPYEPPEV [TP53_Y220_S215N] | 0.708
56 | LDPIQYSKHPP [SQSTM1_Y433_T430P] | 0.588
57 | SGTFQYIIAKF [FOXL2_Y83_I80T_YF] | 0.491
58 | FTGDIYSNSNL [LZTR1_Y141_YF] | 0.738
59 | GHNDVYISEHV [GRIN2A_Y1423] | 0.447
60 | RCNHPYLINGA [CHD7_Y1256_C1251R] | 0.518
61 | KFLENYLNCLL [PLD2_Y169_R172C_YF] | 0.676
62 | ISITPYPAILH [IFT80_Y588] | 0.484
63 | DLLMQYPKAQG [FAM83C_Y600] | 0.301
64 | ARGTRYRFVSQ [UCN3_Y95_YF] | 0.41
65 | EFGFRYELVQY [UGGT2_Y1289_Y1285F] | 0.507
66 | DLGIQYKALKP [CTNNA1_Y177] | 0.442

Target: EPHB1 (UniProt P54762)
Experiment: as above

EPHB1, sequence (P54762 whole entry, looked up): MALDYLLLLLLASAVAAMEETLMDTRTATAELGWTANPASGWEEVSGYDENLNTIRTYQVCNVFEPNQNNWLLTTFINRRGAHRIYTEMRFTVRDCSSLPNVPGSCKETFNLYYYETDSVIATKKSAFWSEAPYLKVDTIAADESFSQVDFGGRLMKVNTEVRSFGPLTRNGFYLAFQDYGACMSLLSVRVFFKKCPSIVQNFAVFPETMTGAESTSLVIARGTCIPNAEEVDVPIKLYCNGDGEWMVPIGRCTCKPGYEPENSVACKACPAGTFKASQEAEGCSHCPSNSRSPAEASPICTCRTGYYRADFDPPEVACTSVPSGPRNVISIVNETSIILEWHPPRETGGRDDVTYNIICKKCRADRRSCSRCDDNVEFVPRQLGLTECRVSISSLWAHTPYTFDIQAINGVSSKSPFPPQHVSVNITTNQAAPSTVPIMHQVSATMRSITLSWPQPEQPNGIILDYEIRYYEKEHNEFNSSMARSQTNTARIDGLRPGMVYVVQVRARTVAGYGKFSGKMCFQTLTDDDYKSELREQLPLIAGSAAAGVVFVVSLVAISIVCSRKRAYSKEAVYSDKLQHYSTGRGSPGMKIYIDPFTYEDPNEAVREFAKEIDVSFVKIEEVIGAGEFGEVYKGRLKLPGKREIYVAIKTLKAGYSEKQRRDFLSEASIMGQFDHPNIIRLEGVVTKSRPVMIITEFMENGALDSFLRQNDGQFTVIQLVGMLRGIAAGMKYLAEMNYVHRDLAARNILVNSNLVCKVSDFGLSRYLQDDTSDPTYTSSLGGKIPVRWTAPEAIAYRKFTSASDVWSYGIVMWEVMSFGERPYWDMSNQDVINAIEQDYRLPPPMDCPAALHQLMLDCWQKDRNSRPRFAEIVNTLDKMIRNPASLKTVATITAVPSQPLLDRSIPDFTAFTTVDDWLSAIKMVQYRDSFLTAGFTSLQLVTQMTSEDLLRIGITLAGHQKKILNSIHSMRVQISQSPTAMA

Row | Sequence | phosphorylation enrichment
67 | KIKGWYEKCEP [KRT26_Y119] | 0.594
68 | HHTDECEFDEL [TGM1_Y134_Y134C_YF] | 0.423
69 | TGVWDYIHVVD [GALE_Y241_R239W] | 0.756
70 | EDDPEYMRLRN [ADD2_Y31] | 0.674
71 | GLRQGYFVEAQ [APCS_Y142] | 0.526
72 | EFFDGYWGFSV [ITGA2B_Y265_YF] | 0.633
73 | RMSSSYPTGLA [ADM_Y52] | 0.37
74 | ISIFHYAKGQP [MPZ_Y82] | 0.69
75 | DHPSEYAARQL [ANXA13_Y90_R86H] | 0.352
76 | FSTDFYRVGGH [NTRK2_Y707_YF] | 0.637
77 | ILTYKYLQIPM [KIT_Y547_K550I] | 0.7
78 | REIHDYIKHLG [UNC13C_Y308_D304E] | 0.699
79 | NYYDLYGGEKF [PTPN11_Y66_D61N] | 10.6
80 | ISDNACQFMLT [MYH7_Y162_Y162C_YF] | 0.712
81 | RDHYGYRQSVT [CD55_Y245] | 0.883
82 | EVESPYEVRDF [GIGYF2_Y1168_H1171R_YF] | 1.01
83 | MPQNEYIELHR [NSA2_Y6] | 0.696

Row | Sequence | phosphorylation enrichment
84 | LFMGDYVGRGF [PPP2CA_Y86_D88G_YF] | 2.4
85 | ADLLVYIKALN [HPRT1_Y81_D80V] | 0.644
86 | RNFDTYTAGLS [RHBDD1_Y264_YF] | 1.9
87 | CTTIHFNYMCN [TP53_Y234_Y234F] | 0.488
88 | NVVVPYEPPEV [TP53_Y220_S215N] | 0.612
89 | LDPIQYSKHPP [SQSTM1_Y433_T430P] | 0.473
90 | SGTFQYIIAKF [FOXL2_Y83_I80T_YF] | 0.448
91 | FTGDIYSNSNL [LZTR1_Y141_YF] | 0.903
92 | GHNDVYISEHV [GRIN2A_Y1423] | 0.331
93 | RCNHPYLINGA [CHD7_Y1256_C1251R] | 0.249
94 | KFLENYLNCLL [PLD2_Y169_R172C_YF] | 0.748
95 | ISITPYPAILH [IFT80_Y588] | 0.578
96 | DLLMQYPKAQG [FAM83C_Y600] | 0.498
97 | ARGTRYRFVSQ [UCN3_Y95_YF] | 0.416
98 | EFGFRYELVQY [UGGT2_Y1289_Y1285F] | 0.573
99 | DLGIQYKALKP [CTNNA1_Y177] | 0.568

Target: Hck (UniProt P08631)
Experiment: as above

Hck, sequence (P08631 whole entry, looked up): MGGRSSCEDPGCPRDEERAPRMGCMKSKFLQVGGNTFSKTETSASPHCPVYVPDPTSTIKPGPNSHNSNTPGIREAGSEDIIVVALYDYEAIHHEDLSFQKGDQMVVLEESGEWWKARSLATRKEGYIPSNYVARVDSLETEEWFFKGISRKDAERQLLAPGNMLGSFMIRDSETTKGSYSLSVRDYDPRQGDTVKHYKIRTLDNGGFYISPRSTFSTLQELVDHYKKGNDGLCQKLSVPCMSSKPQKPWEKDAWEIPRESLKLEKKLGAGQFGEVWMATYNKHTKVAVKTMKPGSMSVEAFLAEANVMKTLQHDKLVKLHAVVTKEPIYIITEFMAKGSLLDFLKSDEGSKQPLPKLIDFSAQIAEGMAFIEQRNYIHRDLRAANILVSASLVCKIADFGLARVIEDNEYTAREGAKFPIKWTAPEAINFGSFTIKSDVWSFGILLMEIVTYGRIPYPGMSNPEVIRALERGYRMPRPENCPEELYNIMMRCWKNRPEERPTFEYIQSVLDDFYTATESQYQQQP

Row | Sequence | phosphorylation enrichment
100 | KIKGWYEKCEP [KRT26_Y119] | 0.527
101 | HHTDECEFDEL [TGM1_Y134_Y134C_YF] | 0.586
102 | TGVWDYIHVVD [GALE_Y241_R239W] | 0.566
103 | EDDPEYMRLRN [ADD2_Y31] | 0.724
104 | GLRQGYFVEAQ [APCS_Y142] | 0.408
105 | EFFDGYWGFSV [ITGA2B_Y265_YF] | 3.31
106 | RMSSSYPTGLA [ADM_Y52] | 0.509
107 | ISIFHYAKGQP [MPZ_Y82] | 0.466
108 | DHPSEYAARQL [ANXA13_Y90_R86H] | 0.525
109 | FSTDFYRVGGH [NTRK2_Y707_YF] | 0.396
110 | ILTYKYLQIPM [KIT_Y547_K550I] | 0.483
111 | REIHDYIKHLG [UNC13C_Y308_D304E] | 0.511
112 | NYYDLYGGEKF [PTPN11_Y66_D61N] | 5.52
113 | ISDNACQFMLT [MYH7_Y162_Y162C_YF] | 0.606
114 | RDHYGYRQSVT [CD55_Y245] | 0.806
115 | EVESPYEVRDF [GIGYF2_Y1168_H1171R_YF] | 2.04
116 | MPQNEYIELHR [NSA2_Y6] | 0.743

Row | Sequence | phosphorylation enrichment
117 | LFMGDYVGRGF [PPP2CA_Y86_D88G_YF] | 1.53
118 | ADLLVYIKALN [HPRT1_Y81_D80V] | 0.657
119 | RNFDTYTAGLS [RHBDD1_Y264_YF] | 3.7
120 | CTTIHFNYMCN [TP53_Y234_Y234F] | 0.427
121 | NVVVPYEPPEV [TP53_Y220_S215N] | 0.56
122 | LDPIQYSKHPP [SQSTM1_Y433_T430P] | 0.795
123 | SGTFQYIIAKF [FOXL2_Y83_I80T_YF] | 0.418
124 | FTGDIYSNSNL [LZTR1_Y141_YF] | 7.46
125 | GHNDVYISEHV [GRIN2A_Y1423] | 0.438
126 | RCNHPYLINGA [CHD7_Y1256_C1251R] | 0.506
127 | KFLENYLNCLL [PLD2_Y169_R172C_YF] | 0.474
128 | ISITPYPAILH [IFT80_Y588] | 0.465
129 | DLLMQYPKAQG [FAM83C_Y600] | 0.364
130 | ARGTRYRFVSQ [UCN3_Y95_YF] | 0.546
131 | EFGFRYELVQY [UGGT2_Y1289_Y1285F] | 0.429
132 | DLGIQYKALKP [CTNNA1_Y177] | 0.485
